Source: the supplement of paper PMC9112550, “Optimization of the antimicrobial peptide Bac7 by deep mutational scanning” (BMC Biology, 2022)

System: Escherichia coli TOP10
Assay: shrunken log2 fold change of peptide-encoding DNA abundance (4.5 h post-induction vs induction); higher = less antimicrobial activity (less host growth inhibition)
Conditions: time post-induction: 4.5 h; library: site-saturation at positions 5, 18, 19, 20
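Further: peptides expressed intracellularly from a pBAD plasmid library in pooled LB shake-flask culture, induced with 0.3% L-arabinose, DNA abundance read by NGS, three biological replicates, DESeq2 with apeglm shrinkage.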

Sequence	shrunken log2 fold change
RRIRQRPPRLPRPRPRPGYTPRP	-0.912
RRIRGRPPRLPRPRPRPTQCPRP	0.222
RRIRPRPPRLPRPRPRPPQPPRP	0.441
RRIRLRPPRLPRPRPRPMRKPRP	0.651
RRIRHRPPRLPRPRPRPPHWPRP	0.375
RRIRRRPPRLPRPRPRPPVSPRP	0.332
RRIRTRPPRLPRPRPRPQGAPRP	-0.0215
RRIRTRPPRLPRPRPRPNLPPRP	0.0474
RRIRTRPPRLPRPRPRPPFLPRP	0.207
RRIRDRPPRLPRPRPRPARKPRP	0.574
RRIRERPPRLPRPRPRPSCNPRP	-0.0433
RRIRVRPPRLPRPRPRPYMAPRP	-0.629
RRIRFRPPRLPRPRPRPMEIPRP	-0.298
RRIRKRPPRLPRPRPRPMTFPRP	-0.00803
RRIRMRPPRLPRPRPRPYWMPRP	-1.18
RRIRIRPPRLPRPRPRPINNPRP	-0.751
RRIRHRPPRLPRPRPRPLWTPRP	-0.174
RRIRKRPPRLPRPRPRPWWFPRP	-0.0467
RRIRARPPRLPRPRPRPEGGPRP	0.872
RRIRKRPPRLPRPRPRPEQPPRP	0.328
RRIRMRPPRLPRPRPRPWIQPRP	-0.228
RRIRERPPRLPRPRPRPIMQPRP	-0.164
RRIRHRPPRLPRPRPRPCLFPRP	-0.229
RRIRVRPPRLPRPRPRPKELPRP	-0.00952
RRIRWRPPRLPRPRPRPNEEPRP	-0.0212

Sequence	shrunken log2 fold change
RRIRGRPPRLPRPRPRPAKCPRP	-0.0198
RRIRQRPPRLPRPRPRPHAWPRP	0.157
RRIRWRPPRLPRPRPRPMSRPRP	0.063
RRIRPRPPRLPRPRPRPYQVPRP	-0.203
RRIRNRPPRLPRPRPRPKPKPRP	0.211
RRIRPRPPRLPRPRPRPPMAPRP	0.338
RRIRMRPPRLPRPRPRPLMEPRP	1.68
RRIRPRPPRLPRPRPRPSLLPRP	-0.205
RRIRQRPPRLPRPRPRPGHPPRP	0.0393
RRIRERPPRLPRPRPRPQNKPRP	-0.64
RRIRTRPPRLPRPRPRPQLSPRP	0.212
RRIRTRPPRLPRPRPRPIETPRP	0.108
RRIRLRPPRLPRPRPRPMRPPRP	1.44
RRIRNRPPRLPRPRPRPMRKPRP	0.481
RRIRQRPPRLPRPRPRPCCRPRP	-0.0851
RRIRYRPPRLPRPRPRPQGMPRP	-0.0114
RRIRGRPPRLPRPRPRPWWSPRP	0.00664
RRIRWRPPRLPRPRPRPFRIPRP	-0.5
RRIRARPPRLPRPRPRPHTVPRP	-0.0287
RRIRDRPPRLPRPRPRPQCLPRP	0.0413
RRIRVRPPRLPRPRPRPCEVPRP	-0.0542
RRIRPRPPRLPRPRPRPAITPRP	-0.361
RRIRMRPPRLPRPRPRPFQQPRP	-0.00146
RRIRCRPPRLPRPRPRPNCDPRP	-0.233
RRIRRRPPRLPRPRPRPLHLPRP	-0.318

Sequence	shrunken log2 fold change
RRIRCRPPRLPRPRPRPIYMPRP	-1.29
RRIRGRPPRLPRPRPRPRLMPRP	0.617
RRIRMRPPRLPRPRPRPENWPRP	0.795
RRIRPRPPRLPRPRPRPLRVPRP	0.615
RRIRERPPRLPRPRPRPAVCPRP	0.086
RRIRMRPPRLPRPRPRPYAAPRP	0.364
RRIRTRPPRLPRPRPRPGFYPRP	-0.159
RRIRDRPPRLPRPRPRPICGPRP	0.0876
RRIRNRPPRLPRPRPRPYSSPRP	-0.027
RRIRMRPPRLPRPRPRPTRRPRP	1.14
RRIRRRPPRLPRPRPRPLHEPRP	-0.0162
RRIRIRPPRLPRPRPRPAMGPRP	1.17
RRIRVRPPRLPRPRPRPFFVPRP	-0.0592
RRIRFRPPRLPRPRPRPYMAPRP	-0.688
RRIRQRPPRLPRPRPRPVVHPRP	-0.164
RRIRYRPPRLPRPRPRPNWPPRP	0.394
RRIRGRPPRLPRPRPRPVGEPRP	1.23
RRIRPRPPRLPRPRPRPWLSPRP	-0.119
RRIRTRPPRLPRPRPRPYSYPRP	-0.692
RRIRRRPPRLPRPRPRPRWQPRP	0.636
RRIRHRPPRLPRPRPRPMTDPRP	-0.898
RRIRWRPPRLPRPRPRPPEEPRP	1.26
RRIRGRPPRLPRPRPRPHHSPRP	-0.196
RRIRMRPPRLPRPRPRPQALPRP	0.0439
RRIRERPPRLPRPRPRPGHVPRP	-0.00285

Sequence	shrunken log2 fold change
RRIRTRPPRLPRPRPRPFTPPRP	-0.0472
RRIRCRPPRLPRPRPRPDKCPRP	-0.325
RRIRPRPPRLPRPRPRPRRGPRP	0.46
RRIRRRPPRLPRPRPRPGINPRP	0.016
RRIRRRPPRLPRPRPRPDLLPRP	0.0733
RRIRKRPPRLPRPRPRPENCPRP	0.654
RRIRCRPPRLPRPRPRPCHSPRP	-1.91
RRIRLRPPRLPRPRPRPNDKPRP	-0.962
RRIRWRPPRLPRPRPRPCPRPRP	-0.0457
RRIRYRPPRLPRPRPRPMWNPRP	-0.302
RRIRPRPPRLPRPRPRPPLKPRP	0.441
RRIRERPPRLPRPRPRPVESPRP	-0.0262
RRIRMRPPRLPRPRPRPFGSPRP	0.00388
RRIRYRPPRLPRPRPRPEYFPRP	-0.744
RRIRIRPPRLPRPRPRPKCMPRP	-0.229
RRIRRRPPRLPRPRPRPWSLPRP	0.016
RRIRCRPPRLPRPRPRPGNWPRP	0.0422
RRIRNRPPRLPRPRPRPMHQPRP	-0.19
RRIRDRPPRLPRPRPRPGLCPRP	0.224
RRIRHRPPRLPRPRPRPFKWPRP	-0.0376
RRIRTRPPRLPRPRPRPINLPRP	-0.156
RRIRFRPPRLPRPRPRPTDVPRP	0.0385
RRIRDRPPRLPRPRPRPRKWPRP	-0.0062
RRIRYRPPRLPRPRPRPFANPRP	-0.245
RRIRVRPPRLPRPRPRPFTGPRP	-0.115

Sequence	shrunken log2 fold change
RRIRIRPPRLPRPRPRPQVAPRP	-0.333
RRIRIRPPRLPRPRPRPCADPRP	-0.289
RRIRKRPPRLPRPRPRPKFAPRP	0.764
RRIRDRPPRLPRPRPRPFPPPRP	-0.113
RRIRYRPPRLPRPRPRPEAYPRP	-0.185
RRIRGRPPRLPRPRPRPWYDPRP	-0.929
RRIRMRPPRLPRPRPRPSSYPRP	0.236
RRIRERPPRLPRPRPRPGFYPRP	0.057
RRIRCRPPRLPRPRPRPRQVPRP	0.184
RRIRPRPPRLPRPRPRPVEQPRP	0.239
RRIRWRPPRLPRPRPRPMFHPRP	-0.271
RRIRMRPPRLPRPRPRPFMKPRP	-0.0288
RRIRMRPPRLPRPRPRPAITPRP	0.0226
RRIRNRPPRLPRPRPRPTGWPRP	0.355
RRIRIRPPRLPRPRPRPYTIPRP	-0.605
RRIRIRPPRLPRPRPRPTWVPRP	-0.022
RRIRKRPPRLPRPRPRPNMLPRP	-0.0107
RRIRIRPPRLPRPRPRPPLCPRP	0.142
RRIRLRPPRLPRPRPRPGLLPRP	0.0272
RRIRPRPPRLPRPRPRPHASPRP	-0.192
RRIRERPPRLPRPRPRPRVHPRP	0.0407
RRIRCRPPRLPRPRPRPASGPRP	0.148
RRIRFRPPRLPRPRPRPQHTPRP	-0.164
RRIRTRPPRLPRPRPRPMFNPRP	-0.643
RRIRSRPPRLPRPRPRPQTIPRP	-0.502
